Consider one protein from FireProtDB (doi:10.1016/j.jmb.2004.10.057).

The conditions of the series: Mus musculus, pH 7.4, 20 °C, Tris-HCl 20 mM, whole UniProt chain shown.

Several values for one entry are separate records, joined by “and”; a condition that tells them apart may be missing. Identical values can stand only once.

B1: Adenosine deaminase wild type, P03958 (protein)
chain: MAQTPAFNKPKVELHVHLDGAIKPETILYFGKKRGIALPADTVEELRNIIGMDKPLSLPGFLAKFDYYMPVIAGCREAIKRIAYEFVEMKAKEGVVYVEVRYSPHLLANSKVDPMPWNQTEGDVTPDDVVDLVNQGLQEGEQAFGIKVRSILCCMRHQPSWSLEVLELCKKYNQKTVVAMDLAGDETIEGSSLFPGHVEAYEGAVKNGIHRTVHAGEVGSPEVVREAVDILKTERVGHGYHTIEDEALYNRLLKENMHFEVCPWSSYLTGAWDPKTTHAVVRFKNDKANYSLNTDDPLIFKSTLDTDYQMTKKDMGFTEEEFKRLNINAAKSSFLPEEEKKELLERLYREYQ
B1: the denaturant m value reads like this: (GdnHCl, Fluorescence) 2.08 kcal/mol/M; (Urea, Fluorescence) 0.79 kcal/mol/M. The “denaturant midpoint (higher = more stable)” value worked out at 1.91 M (GdnHCl, Fluorescence); 0.68 M (Urea, Enzyme assay); 6.19 M (Urea, Fluorescence). The unfolding free energy reads like this: (GdnHCl, Fluorescence) 3.98 kcal/mol; (Urea, CD) 5.78 kcal/mol and 7.39 kcal/mol; (Urea, Fluorescence) 4.89 kcal/mol.
